Test results reported in patent US6153391A, “Interruption of binding of MDM2 and P53 protein and therapeutic application thereof” (University of Dundee, priority 1998, dated 2000).

Biological target: T1, mouse MDM2 (Mus musculus, UniProt P23804)
T1 construct: gene PCR-cloned from mouse prostate cell line
Assay: ELISA of MDM2 binding to immobilised biotinylated p53 peptides (peptide library, alanine and conserved substitution series)
Details: consensus peptide and alanine substitution series, Example 3, FIG. 5
Method: The libraries were in the form of 15 mer peptides linked to biotin via an additional peptide spacer region of serine-glycine-serine-glycine, and each peptide shared a 5 amino acid overlap with the previous peptide in the primary sequence. ELISA plates were coated with 100 μof 5 μg/ml streptavidin (vector labs) per well and incubated overnight at 37° C. and then blocked with phosphate buffered saline (PBS) containing 2% bovine serum albumin (BSA) for 1 hour at room temperature. The stock biotinylated peptides were diluted to 5 μg/ml in PBS containing 0.1 BSA and 50 μl of each were plated into designed wells and then incubated at room temperature for 1 hour. […] In the case of cell extracts bound protein was detected with the appropriate primary antibody at 1-3 μg/ml, and followed by an anti-mouse horse radish peroxidase conjugate and 3'3'4'4'-tetramethyl benzidine (TMB) substrate as in the standard ELISA assay (Harlow, E., et al (1988). Antibodies: a laboratory manual. New York. Cold Spring Harbor Laboratory Press and Lane, 1988).
These libraries consisted of 15 amino acid long sections of the p53 primary amino acid sequence, that consecutively overlapped by 5 amino acids, and were each attached to biotin via a 4 amino acid long spacer. […] The results are presented alongside the ELISA readings for extract of insect cells alone not expressing mouse MDM2. […]

T1 sequence (P23804 whole entry): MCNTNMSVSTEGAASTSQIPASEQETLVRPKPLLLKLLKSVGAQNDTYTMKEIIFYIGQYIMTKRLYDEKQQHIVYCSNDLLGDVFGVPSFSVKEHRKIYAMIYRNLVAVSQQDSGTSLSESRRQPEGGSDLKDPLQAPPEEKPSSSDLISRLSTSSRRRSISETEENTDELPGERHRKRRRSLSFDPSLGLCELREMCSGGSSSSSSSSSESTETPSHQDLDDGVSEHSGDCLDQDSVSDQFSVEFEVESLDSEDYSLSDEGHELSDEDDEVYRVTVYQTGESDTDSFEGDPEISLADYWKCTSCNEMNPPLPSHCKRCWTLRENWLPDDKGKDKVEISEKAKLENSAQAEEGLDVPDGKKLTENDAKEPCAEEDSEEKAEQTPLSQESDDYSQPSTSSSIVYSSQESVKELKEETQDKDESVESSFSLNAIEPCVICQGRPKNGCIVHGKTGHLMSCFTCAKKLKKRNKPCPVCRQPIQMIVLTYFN

Sequence: QETFSDLWKL
- level of MDM2 binding as measured by ELISA: higher level of binding of MDM2
